# Measured values reported in patent US5849703A, “Pre-formed anticoagulant heparin/TFPI complexes” (G. D. Searle & Co., priority 1996, dated 1998).
# Values joined by “and” are separate entries in the source; they are usually repeats but may differ in a detail not shown here. Equal entries are not always repeated. “Also recorded” adds a separate entry of the source. Where two headings read alike, the source gives them in different places.
# Legend:
# [1] = Plasma levels of TFPI following bolus injection and constant infusion; type: in vivo, rabbit; conditions: infusion of 11.4 μg/kg/min FL-TFPI, 4 h; PCFIA
# Experimental: For FL-TFPI, a bolus of 0.5 mg/kg was injected through the femoral vein followed by constant infusion of FL-TFPI (11.4 μg/kg/min).
# For heparin/FL-TFPI, a bolus of preformed heparin (0.24 mg/kg)/FL-TFPI (0.19 mg/kg) complex was injected followed by constant infusion of heparin (5.4 μg/kg/min)/FL-TFPI (4.3 μg/kg/min) complex. Infusions were carried out over a 4-h period. Plasma levels of TFPI were measured by PCFIA assay.
# For constant infusion studies, a bolus of FL-TFPI (0.5 mg/kg) or pre-formed heparin (0.24 mg/kg)/FL-TFPI (0.19 mg/kg) complex was injected through the femoral vein, followed by constant infusion of FL-TFPI (11.4 μg/kg/min)or heparin (5.4 μg/kg/min)/FL-TFPI (4.3 μg/kg/min) complex over a 4-hr period. Blood collection and plasma sample preparation were carried out as described above.
# (§1) Plasma levels of TFPI antigen were measured by PCFIA assay. Functional TFPI activity in the plasma was also measured by dPT assay using each rabbit's own control plasma supplemented with known concentrations of FL-TFPI as a reference standard [Palmier, et al., Thromb. Haemost. 68, 33-36 (1992)]. Data from individual animals were fitted to the general bi-exponential equation: […]
# [2] = tested on: TF-induced clotting in human plasma; test: Dilute prothrombin time (dPT) assay: TF-induced clotting of human plasma; type: biochemical; conditions: 1:4 dilution of Simplastin
# Experimental: dPT assay was carried out using 1:4 dilution of Simplastin®. Closed square and closed triangle on the abscissa indicate the clotting times of the plasma supplemented with control buffer and 2 μg/ml FL-TFPI, respectively.
# dPT assay was carried out using 1:40 dilution of Simplastin®. Closed square and closed triangle on the abscissa indicate the clotting times of the plasma supplemented with control buffer and 0.3 μg/ml FL-TFPI, respectively.
# (§2) Rabbit brain thromboplastin (TF;Simplastin®) was diluted to varying degrees ranging from 1:4 to 1:50 with a buffer containing 12.5 mM CaCl2, 75 mM NaCl, 0.5 mg/ml bovine serum albumin, and 0.02% NaN3, for determination of TF-induced clotting time in human plasma. Fifty (50) μl of human plasma were mixed with 50 μl of DB, heparin, TFPI, or preformed complexes of heparin/TFPI in DB in the well of a Fibrometer at 37° for 1 min. Two hundred (200) μl of appropriately diluted thromboplastin reagent were then added and the time to clotting was determined.
# (§3) The dPTs reported here are the average of 2 to 8 determinations, depending on the length of the clotting time. When the clotting time was short (<100 sec), the variations between determinations are small and 2-4 assay values were averaged for each data point. When the clotting time is long (>100 sec), the variations between determinations are larger and 5-8 assay values are averaged for each data point. […] The concentrations of heparin and TFPI are expressed as units or μg per ml of plasma, not as that in the final assay mixture.
# In one-stage TF-induced plasma clotting assay, clotting time is dependent on the concentration of TF and the concentrations of anticoagulants present. […] In the absence of added anticoagulants, the addition of this concentration of TF caused the plasma to clot in 20 sec (closed square).
# [3] = cited from earlier work
# [4] = Pharmacokinetics following bolus injection in rabbits; type: in vivo, rabbit; conditions: for tα: bolus FL-TFPI 1.5 mg/kg or heparin 1.9 mg/kg/FL-TFPI 1.5 mg/kg; for % AUCα / % AUCβ / Clearence / Vd / tβ: bolus
# Experimental: The pharmacokinetics study was carried out as described in METHODS. Rabbits were injected with a bolus of FL-TFPI (1.5 mg/kg) or heparin (1.9 mg/kg)/FL-TFPI (1.5 mg/kg) complex.
# as §1
# where C is the concentration of TFPI at time t, and A and B are the intercept values (to) extrapolated from a and b, the first order elimination rate constants.
# [5] = tested on: TF-induced clotting of TFPI-depleted plasma; test: dPT assay in TFPI-depleted plasma (1:50 dilution of Simplastin); type: biochemical, human; conditions: for prolongation of clotting time: increasing concentrations, alone, 1:50 dilution of Simplastin
# Experimental: FIG. 2B: Effects of CT-TFPI (.quadrature.), heparin (.circle-solid.), and sequential addition of CT-TFPI and heparin (.tangle-solidup.) on clotting time. dPTs were determined as described in METHODS using 1:50 dilution of Simplastin®.
# Pooled plasma was prepared by mixing four (4) units of individual plasmas, and TFPI-depleted pooled plasma was obtained by passing the pooled plasma through a rabbit anti-human TFPI-Ig Sepharose® 4B column as described previously [(Wun, J. Biol. Chem. 265:16096-16101 (1990)].
# as §2, §3
# In the present work, FL-TFPI and CT-TFPI were separated by Mono S chromatography as described before [Wun, et al., Thromb. Haemost. 68, 54-59 (1992)], and the effects of heparin, FL-TFPI, or CT-TFPI alone, and combinations of heparin/FL-TFPI, and heparin/CT-TFPI were compared. FIGS. 2A and B show the results.
# [6] = tested on: extrinsic and the common pathways; test: Prothrombin time (PT) assay; type: biochemical, human
# Experimental: (§4) Measurement of PT and APTT are as described in METHODS. PT and APTT ratios are calculated by dividing the clotting times in the presence of the indicated amounts of FL-TFPI or heparin by the clotting times in the absence of anticoagulants.
# Ninety (90) μl of plasma were mixed with 10 μl of DB (dilution buffer containing 10 mM Tris/HCl, pH 7.4, 150 mM NaCl, 1 mM Na2 SO4, 1 mg/ml bovine serum albumin, and 0.02% NaN3), FL-TFPI solution, or heparin solution in the Fibrometer well at 37° for 1 min. Two hundred (200) μl of Simplastin® were then added and the time to clotting was recorded.
# (§5) PT is a global test that primarily measures the functionality of the extrinsic and the common pathways; while APTT is a procedure which evaluates that of the intrinsic and the common pathways. The individual effects of heparin and FL-TFPI on PT and APTT were examined to determine the primary sites of their actions.
# [7] = pH 7.4
# Excerpt: (§6) The solubility of non-glycosylated recombinant E. coli-derived FL-TFPI [Diaz-Collier, et al., Thromb.
# [8] = tested on: intrinsic and the common pathways; test: Activated partial thromboplastin time (APTT) assay; type: biochemical, human
# Experimental: as §4
# Ninety (90) μl of plasma were mixed with 10 μl of DB, FL-TFPI solution, or heparin solution in the Fibrometer well at 37° for 1 min. One hundred (100) μl of Dade's activated cephaloplastin reagent were added and the mixture was incubated for exactly 2 min. A calcium solution (100 μl of 25 mM CaCl2) was added and the time to clotting was recorded.
# as §5
# [9] = tested on: factor Xa; conditions: purified system; cited from earlier work
# [10] = tested on: fibrin-dependent glomerulonephritis model; conditions: clinical dose of heparin; cited from earlier work
# [11] = Solubility of FL-TFPI and heparin/FL-TFPI complexes
# Excerpt: as §6
# [12] = bolus injection, rabbits, PCFIA
# [13] = individual rabbits #1-#3, PCFIA
# [14] = up to 40 μg/ml N-acetyl heparin (FIG. 5)
substance,measurement,setting,value
"FL-TFPI: Recombinant full-length (FL-) TFPI, tissue factor pathway inhibitor",steady state plasma level of TFPI,[1],~ 2 μg/ml
same,prolongation of the clotting time,[2]; 2 μg/ml FL-TFPI alone,58 s
same,clotting time,[2]; 2 μg/ml FL-TFPI alone (FIG. 3),78 s
same,clotting time,[2]; 2 μg/ml FL-TFPI alone (FIG. 5),90 s
same,clotting time,[2]; 2 μg/ml FL-TFPI alone (FIG. 6),82 s
same,NaCl required for dissociation from heparin,[3],0.6 to 1 M
same,clearance of TFPI antigen (PCFIA) vs functional TFPI activity (dPT),"[4]; bolus injection, rabbits",closely matched
same,faster overall clearance relative to heparin/FL-TFPI complex,"[4]; bolus injection, rabbits",~ 2.6 fold
same,overall clearance,"[4]; bolus injection, rabbits",5.7 mL/min/kg
same,t1/2α,[4]; [12],1.4 min
same,t1/2β,[4]; [12],92 min
same,tα,[4]; [13],1.5 min and 1.7 min and 1.0 min
same,% AUCα,[4]; [13],9.4% and 7.2% and 7.9%
same,% AUCβ,[4]; [13],90.6% and 92.8% and 92.1%
same,Clearence,[4]; [13],5.9 mL/min/kg and 4.3 mL/min/kg and 6.8 mL/min/kg
same,Vd,[4]; [13],0.118 L/kg and 0.115 L/kg
same,tβ,[4]; [13],89 min and 96 min and 91 min
same,tα,"[4]; mean of 3 rabbits (±SEM on separate line), PCFIA",1.4 min
same,% AUCα,"[4]; mean of 3 rabbits, PCFIA",8.2%
same,% AUCβ,"[4]; mean of 3 rabbits, PCFIA",92%
same,Clearence,"[4]; mean of 3 rabbits, PCFIA",5.7 mL/min/kg
same,Vd,"[4]; mean of 3 rabbits, PCFIA",0.117 L/kg
same,tβ,"[4]; mean of 3 rabbits, PCFIA",92 min
same,% AUCβ,"[4]; mean of 3 rabbits, PCFIA, listed as TFPI",91.8%
same,potency in prolonging the clotting time compared with CT-TFPI,[5]; FIG. 2,much more potent in prolonging the clotting time than CT-TFPI; also recorded: far more potent than CT-TFPI in prolonging the TF-induced clotting time; also recorded: far more potent than CT-TFPI alone or in combination with heparin
same,prolongation of clotting time,[5],increasingly prolong the clotting time in a moderate manner
same,PT ratio increase compared with APTT ratio,[6]; FIG. 1,much greater increase of the PT ratio than the APTT ratio
same,primary site of action,[6]; from PT and APTT ratios,primarily affects the extrinsic pathway
same,solubility,[7],exceeds 5 mg/ml
heparin,prolongation of the clotting time,[2]; 10 μg/ml heparin alone,26 s
same,clotting time,[2]; heparin beyond 1.25 μg/ml (FIG. 3),progressively prolonged
same,clotting time,[2]; heparin up to 1.25 μg/ml (FIG. 3),did not alter the clotting time
same,APTT ratio increase compared with PT ratio,[8]; FIG. 1,much greater increase of APTT ratio than PT ratio
same,primary site of action,[8]; from PT and APTT ratios,mainly inhibits the intrinsic pathway
same,prolongation of clotting time,[5],increasingly prolong the clotting time in a moderate manner
same,rate of factor Xa inhibition by TFPI,[9],enhances the rate of factor Xa inhibition by TFPI in a concentration dependent and biphasic manner
same,beneficial effect on the disease process,[10],did not produce a beneficial effect on the disease process
non-glycosylated recombinant E. coli-derived FL-TFPI: non-glycosylated recombinant E. coli-derived FL-TFPI,solubility,"[11]; Dulbecco's phosphate-buffered saline, estimated",approximately 200 μg/ml
same,solubility,"[11]; saline solutions, compared with glycosylated FL-TFPI",even lower
N-acetyl heparin,clotting time,[2]; [14],~ 18 sec
same,clotting time (in words),[2]; [14],did not alter the clotting time
